B1: Pistol ribozyme (parent)
chain: GGGUCGUUGUUCCAUAAUCGCGUGGAUAUGGCACGCAAGUUUCUACCGGGCACCGUAAAUGUCCGACUGGAGCCGUUCGGGCGGCUAUAAACAGACCUCAGGCCCGAAGCGUGGCGGCACCUGCCGCCGGUGGUAAAAAAGAUCGGAAGAGCACACGUCU

Variants of: B1
Assay: aptazyme ON/OFF ratio, guanine; higher = stronger switching; co-transcriptional cleavage with and without guanine

Variant	aptazyme ON/OFF ratio
GGGUCGGGAGUGUAUAAUCGCGUGGAUAUGGCACGCAAGUUUCUACCGGGCACCGUAAAUGUCCGACUGGAGCCGUUCGGGCGGCUAUAAACAGACCUCAGGCCCGAAGCGUGGCGGCACCUGCCGCCGGUGGUAAAAAAGAUCGGAAGAGCACACGUCU [U7G U8G G9A U10G C12G C13U]	1.55
GGGUCGGCAGGAUAUAAUCGCGUGGAUAUGGCACGCAAGUUUCUACCGGGCACCGUAAAUGUCCGACUGGAGCCGUUCGGGCGGCUAUAAACAGACCUCAGGCCCGAAGCGUGGCGGCACCUGCCGCCGGUGGUAAAAAAGAUCGGAAGAGCACACGUCU [U7G U8C G9A U10G U11G C12A C13U]	1.3
GGGUCGGCUCCCGAUAAUCGCGUGGAUAUGGCACGCAAGUUUCUACCGGGCACCGUAAAUGUCCGACUGGAGCCGUUCGGGCGGCUAUAAACAGACCUCAGGCCCGAAGCGUGGCGGCACCUGCCGCCGGUGGUAAAAAAGAUCGGAAGAGCACACGUCU [U7G U8C G9U U10C U11C C13G]	1.08
GGGUCGUCUCCUGAUAAUCGCGUGGAUAUGGCACGCAAGUUUCUACCGGGCACCGUAAAUGUCCGACUGGAGCCGUUCGGGCGGCUAUAAACAGACCUCAGGCCCGAAGCGUGGCGGCACCUGCCGCCGGUGGUAAAAAAGAUCGGAAGAGCACACGUCU [U8C G9U U10C U11C C12U C13G]	1.05
GGGUCGAUCAUGUAUAAUCGCGUGGAUAUGGCACGCAAGUUUCUACCGGGCACCGUAAAUGUCCGACUGGAGCCGUUCGGGCGGCUAUAAACAGACCUCAGGCCCGAAGCGUGGCGGCACCUGCCGCCGGUGGUAAAAAAGAUCGGAAGAGCACACGUCU [U7A G9C U10A C12G C13U]	1.17
GGGUCGGGUAUAGAUAAUCGCGUGGAUAUGGCACGCAAGUUUCUACCGGGCACCGUAAAUGUCCGACUGGAGCCGUUCGGGCGGCUAUAAACAGACCUCAGGCCCGAAGCGUGGCGGCACCUGCCGCCGGUGGUAAAAAAGAUCGGAAGAGCACACGUCU [U7G U8G G9U U10A C12A C13G]	1.14
GGGUCGGCAAGACAUAAUCGCGUGGAUAUGGCACGCAAGUUUCUACCGGGCACCGUAAAUGUCCGACUGGAGCCGUUCGGGCGGCUAUAAACAGACCUCAGGCCCGAAGCGUGGCGGCACCUGCCGCCGGUGGUAAAAAAGAUCGGAAGAGCACACGUCU [U7G U8C G9A U10A U11G C12A]	1.06
GGGUCGGUAGGUGAUAAUCGCGUGGAUAUGGCACGCAAGUUUCUACCGGGCACCGUAAAUGUCCGACUGGAGCCGUUCGGGCGGCUAUAAACAGACCUCAGGCCCGAAGCGUGGCGGCACCUGCCGCCGGUGGUAAAAAAGAUCGGAAGAGCACACGUCU [U7G G9A U10G U11G C12U C13G]	1.12
GGGUCGUCCGCUAAUAAUCGCGUGGAUAUGGCACGCAAGUUUCUACCGGGCACCGUAAAUGUCCGACUGGAGCCGUUCGGGCGGCUAUAAACAGACCUCAGGCCCGAAGCGUGGCGGCACCUGCCGCCGGUGGUAAAAAAGAUCGGAAGAGCACACGUCU [U8C G9C U10G U11C C12U C13A]	1.17
GGGUCGUACUUCGAUAAUCGCGUGGAUAUGGCACGCAAGUUUCUACCGGGCACCGUAAAUGUCCGACUGGAGCCGUUCGGGCGGCUAUAAACAGACCUCAGGCCCGAAGCGUGGCGGCACCUGCCGCCGGUGGUAAAAAAGAUCGGAAGAGCACACGUCU [U8A G9C C13G]	1.04
GGGUCGCCAAUCAAUAAUCGCGUGGAUAUGGCACGCAAGUUUCUACCGGGCACCGUAAAUGUCCGACUGGAGCCGUUCGGGCGGCUAUAAACAGACCUCAGGCCCGAAGCGUGGCGGCACCUGCCGCCGGUGGUAAAAAAGAUCGGAAGAGCACACGUCU [U7C U8C G9A U10A C13A]	1.15
GGGUCGUUCAGCAAUAAUCGCGUGGAUAUGGCACGCAAGUUUCUACCGGGCACCGUAAAUGUCCGACUGGAGCCGUUCGGGCGGCUAUAAACAGACCUCAGGCCCGAAGCGUGGCGGCACCUGCCGCCGGUGGUAAAAAAGAUCGGAAGAGCACACGUCU [G9C U10A U11G C13A]	1.21
GGGUCGCGCGGCAAUAAUCGCGUGGAUAUGGCACGCAAGUUUCUACCGGGCACCGUAAAUGUCCGACUGGAGCCGUUCGGGCGGCUAUAAACAGACCUCAGGCCCGAAGCGUGGCGGCACCUGCCGCCGGUGGUAAAAAAGAUCGGAAGAGCACACGUCU [U7C U8G G9C U10G U11G C13A]	1.13
GGGUCGCGCAUGAAUAAUCGCGUGGAUAUGGCACGCAAGUUUCUACCGGGCACCGUAAAUGUCCGACUGGAGCCGUUCGGGCGGCUAUAAACAGACCUCAGGCCCGAAGCGUGGCGGCACCUGCCGCCGGUGGUAAAAAAGAUCGGAAGAGCACACGUCU [U7C U8G G9C U10A C12G C13A]	1.2
GGGUCGGCGAUCAAUAAUCGCGUGGAUAUGGCACGCAAGUUUCUACCGGGCACCGUAAAUGUCCGACUGGAGCCGUUCGGGCGGCUAUAAACAGACCUCAGGCCCGAAGCGUGGCGGCACCUGCCGCCGGUGGUAAAAAAGAUCGGAAGAGCACACGUCU [U7G U8C U10A C13A]	1.11
GGGUCGUGGGAAGAUAAUCGCGUGGAUAUGGCACGCAAGUUUCUACCGGGCACCGUAAAUGUCCGACUGGAGCCGUUCGGGCGGCUAUAAACAGACCUCAGGCCCGAAGCGUGGCGGCACCUGCCGCCGGUGGUAAAAAAGAUCGGAAGAGCACACGUCU [U8G U10G U11A C12A C13G]	1.14
GGGUCGGAGACACAUAAUCGCGUGGAUAUGGCACGCAAGUUUCUACCGGGCACCGUAAAUGUCCGACUGGAGCCGUUCGGGCGGCUAUAAACAGACCUCAGGCCCGAAGCGUGGCGGCACCUGCCGCCGGUGGUAAAAAAGAUCGGAAGAGCACACGUCU [U7G U8A U10A U11C C12A]	1.31
GGGUCGAAAGGGAAUAAUCGCGUGGAUAUGGCACGCAAGUUUCUACCGGGCACCGUAAAUGUCCGACUGGAGCCGUUCGGGCGGCUAUAAACAGACCUCAGGCCCGAAGCGUGGCGGCACCUGCCGCCGGUGGUAAAAAAGAUCGGAAGAGCACACGUCU [U7A U8A G9A U10G U11G C12G C13A]	1.5

From the RNAGym collection of RNA variant scans (doi:10.1021/acssynbio.7b00057)
